Residue numbers refer to the chain shown, from its start. Names and notes keep the numbering of the source.
B1: phage P4 polarity suppression protein Psu, wild-type (Psu^wt), purified (natural protein)
chain: MESTALQQAFDTCQNNKAAWLQRKNELAAAEQEYLRLLSGEGRNVSRLDELRNIIEVRKWQVNQAAGRYIRSHEAVQHISIRDRLNDFMQQHGTALAAALAPELMGYSELTAIARNCAIQRATDALREALLSWLAKGEKINYSAQDSDILTTIGFRPDVASVDDSREKFTPAQNMIFSRKSAQLASRQSV
B2: Psu variant R43A (Psu^R43A), purified (natural protein)
chain: B1 chain with R43A

Key:
[1] = molecular target: T1, transcription termination factor ρ variant P167L (ρ^P167L), purified (E. coli, UniProt P0AG30, P167L); assay: stopped-flow/FRET
cryo-EM structure = molecular target: the molecule itself; assay: cryo-EM structure
[2] = molecular target: T1, transcription termination factor ρ …; assay: SEC

| Binder | binding result [1] | stoichiometry N (cryo-EM structure) | binding result [2] |
| --- | --- | --- | --- |
| B1 | binds | 2 | – |
| B2 | – | – | binds |

— paper doi:10.1101/2023.06.22.546067 (bioRxiv, 2023)
